As usually defined, the Kd is the free concentration of one partner at which half of the binding sites on the other are occupied at equilibrium, for simple one-to-one binding.

Experimental findings from paper PMC2362091, “Expression of V1A and GRP receptors leads to cellular transformation and increased sensitivity to substance-P analogue-induced growth inhibition” (British Journal of Cancer, 2005) are described below.

The target in the experiment is arginine vasopressin (AVP) (Homo sapiens), P01185. Description: competition.
Chain of arginine vasopressin (AVP) (Homo sapiens), P01185 (P01185 whole entry, looked up): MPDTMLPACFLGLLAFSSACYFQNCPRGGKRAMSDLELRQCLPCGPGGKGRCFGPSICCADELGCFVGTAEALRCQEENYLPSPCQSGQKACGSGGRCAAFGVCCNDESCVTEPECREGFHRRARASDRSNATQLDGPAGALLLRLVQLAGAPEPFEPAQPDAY

B1: V1A receptor, P37288 (protein)
chain: MRLSAGPDAGPSGNSSPWWPLATGAGNTSREAEALGEGNGPPRDVRNEELAKLEIAVLAVTFAVAVLGNSSVLLALHRTPRKTSRMHLFIRHLSLADLAVAFFQVLPQMCWDITYRFRGPDWLCRVVKHLQVFGMFASAYMLVVMTADRYIAVCHPLKTLQQPARRSRLMIAAAWVLSFVLSTPQYFVFSMIEVNNVTKARDCWATFIQPWGSRAYVTWMTGGIFVAPVVILGTCYGFICYNIWCNVRGKTASRQSKGAEQAGVAFQKGFLLAPCVSSVKSISRAKIRTVKMTFVIVTAYIVCWAPFFIIQMWSVWDPMSVWTESENPTITITALLGSLNSCCNPWIYMFFSGHLLQDCVQSFPCCQNMKEKFNKEDTDSMSRRQTFYSNNRSPTNSTGMWKDSPKSSKSIKFIPVST
B1 gave a Kd of 2.98 nM.
